Laboratory results as given in IntAct's records for PubMed 35266954.

B1: Probable E3 ubiquitin-protein ligase MID2 (Homo sapiens), Q9UJV3 (parent)
chain: MGESPASVVLNASGGLFSLKMETLESELTCPICLELFEDPLLLPCAHSLCFSCAHRILVSSCSSGESIEPITAFQCPTCRYVISLNHRGLDGLKRNVTLQNIIDRFQKASVSGPNSPSESRRERTYRPTTAMSSERIACQFCEQDPPRDAVKTCITCEVSYCDRCLRATHPNKKPFTSHRLVEPVPDTHLRGITCLDHENEKVNMYCVSDDQLICALCKLVGRHRDHQVASLNDRFEKLKQTLEMNLTNLVKRNSELENQMAKLIQICQQVEVNTAMHEAKLMEECDELVEIIQQRKQMIAVKIKETKVMKLRKLAQQVANCRQCLERSTVLINQAEHILKENDQARFLQSAKNIAERVAMATASSQVLIPDINFNDAFENFALDFSREKKLLEGLDYLTAPNPPSIREELCTASHDTITVHWISDDEFSISSYELQYTIFTGQANFISKSWCSWGLWPEIRKCKEAVSCSRLAGAPRGLYNSVDSWMIVPNIKQNHYTVHGLQSGTRYIFIVKAINQAGSRNSEPTRLKTNSQPFKLDPKMTHKKLKISNDGLQMEKDESSLKKSHTPERFSGTGCYGAAGNIFIDSGCHYWEVVMGSSTWYAIGIAYKSAPKNEWIGKNASSWVFSRCNSNFVVRHNNKEMLVDVPPHLKRLGVLLDYDNNMLSFYDPANSLHLHTFDVTFILPVCPTFTIWNKSLMILSGLPAPDFIDYPERQECNCRPQESPYVSGMKTCH

Variants of: B1
Conditions: with lrrk2_human LRRK2, Q5S007
lrrk2_human LRRK2, Q5S007, sequence (Q5S007 whole entry): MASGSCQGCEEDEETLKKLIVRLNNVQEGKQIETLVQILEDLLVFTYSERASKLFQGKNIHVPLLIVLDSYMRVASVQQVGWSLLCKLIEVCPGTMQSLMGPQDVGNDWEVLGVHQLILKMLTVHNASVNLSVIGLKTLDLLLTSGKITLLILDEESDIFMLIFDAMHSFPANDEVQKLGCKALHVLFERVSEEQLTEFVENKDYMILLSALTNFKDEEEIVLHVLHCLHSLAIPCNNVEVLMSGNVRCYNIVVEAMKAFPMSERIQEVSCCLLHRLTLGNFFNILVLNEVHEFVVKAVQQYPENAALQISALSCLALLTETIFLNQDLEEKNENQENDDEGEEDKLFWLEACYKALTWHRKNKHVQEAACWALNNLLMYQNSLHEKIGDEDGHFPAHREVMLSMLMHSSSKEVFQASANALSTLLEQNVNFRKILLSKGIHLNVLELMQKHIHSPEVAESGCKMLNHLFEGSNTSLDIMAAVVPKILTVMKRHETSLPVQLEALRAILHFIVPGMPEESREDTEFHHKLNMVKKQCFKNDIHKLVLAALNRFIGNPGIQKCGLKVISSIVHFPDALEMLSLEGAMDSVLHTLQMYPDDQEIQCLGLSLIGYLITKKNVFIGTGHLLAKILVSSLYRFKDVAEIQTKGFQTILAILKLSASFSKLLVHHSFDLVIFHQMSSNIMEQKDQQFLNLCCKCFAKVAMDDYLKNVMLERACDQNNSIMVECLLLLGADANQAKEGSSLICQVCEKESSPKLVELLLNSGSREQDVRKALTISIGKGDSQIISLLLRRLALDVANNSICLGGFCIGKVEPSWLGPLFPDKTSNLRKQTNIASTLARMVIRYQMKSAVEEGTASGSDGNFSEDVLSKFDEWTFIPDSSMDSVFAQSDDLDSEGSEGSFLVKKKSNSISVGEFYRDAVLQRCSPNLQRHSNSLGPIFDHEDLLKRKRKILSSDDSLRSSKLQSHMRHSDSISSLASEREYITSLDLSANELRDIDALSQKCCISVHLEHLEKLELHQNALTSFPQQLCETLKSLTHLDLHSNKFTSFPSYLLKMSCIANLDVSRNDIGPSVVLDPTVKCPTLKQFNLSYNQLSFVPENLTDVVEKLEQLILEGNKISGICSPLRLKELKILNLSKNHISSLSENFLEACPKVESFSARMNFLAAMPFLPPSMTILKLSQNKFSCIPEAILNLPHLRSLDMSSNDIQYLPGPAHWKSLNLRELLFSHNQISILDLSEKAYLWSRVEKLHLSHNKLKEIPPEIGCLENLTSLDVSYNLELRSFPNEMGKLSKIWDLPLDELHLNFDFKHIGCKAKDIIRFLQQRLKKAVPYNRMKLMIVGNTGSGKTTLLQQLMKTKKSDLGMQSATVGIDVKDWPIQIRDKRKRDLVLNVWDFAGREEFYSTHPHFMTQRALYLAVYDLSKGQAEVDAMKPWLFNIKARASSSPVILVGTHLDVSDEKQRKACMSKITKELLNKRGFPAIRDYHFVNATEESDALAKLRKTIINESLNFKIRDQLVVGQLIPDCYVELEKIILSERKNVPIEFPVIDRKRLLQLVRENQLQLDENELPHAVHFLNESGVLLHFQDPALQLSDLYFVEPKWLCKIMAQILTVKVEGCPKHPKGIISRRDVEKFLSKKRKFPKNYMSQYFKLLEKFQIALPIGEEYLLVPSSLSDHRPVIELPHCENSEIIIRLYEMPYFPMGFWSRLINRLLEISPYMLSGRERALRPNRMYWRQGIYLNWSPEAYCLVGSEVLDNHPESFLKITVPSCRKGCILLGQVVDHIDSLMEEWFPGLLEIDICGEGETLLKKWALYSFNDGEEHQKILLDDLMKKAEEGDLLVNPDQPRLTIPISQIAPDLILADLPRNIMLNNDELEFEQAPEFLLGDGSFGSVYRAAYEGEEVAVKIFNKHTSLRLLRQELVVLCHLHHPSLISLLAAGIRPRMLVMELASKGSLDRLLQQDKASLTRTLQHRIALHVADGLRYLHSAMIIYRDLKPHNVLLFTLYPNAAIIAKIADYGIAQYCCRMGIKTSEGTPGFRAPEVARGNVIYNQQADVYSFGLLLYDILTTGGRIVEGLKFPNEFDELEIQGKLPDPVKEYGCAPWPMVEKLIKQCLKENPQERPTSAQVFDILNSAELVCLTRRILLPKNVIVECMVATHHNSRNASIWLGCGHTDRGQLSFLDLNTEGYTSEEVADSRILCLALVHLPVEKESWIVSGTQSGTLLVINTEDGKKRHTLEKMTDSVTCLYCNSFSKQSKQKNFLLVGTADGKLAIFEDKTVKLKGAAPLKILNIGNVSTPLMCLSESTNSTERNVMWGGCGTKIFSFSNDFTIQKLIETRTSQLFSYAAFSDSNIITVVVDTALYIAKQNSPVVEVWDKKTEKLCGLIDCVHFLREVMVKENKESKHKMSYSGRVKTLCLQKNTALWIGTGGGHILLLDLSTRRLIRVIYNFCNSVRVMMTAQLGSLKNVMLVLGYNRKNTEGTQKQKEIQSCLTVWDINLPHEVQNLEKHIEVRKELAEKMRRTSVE

effect of a mutation on the interaction	Variant
with no effect	F348A;L349A;Q350A;L396A;D397A;Y398A
